# Reference: US20040086946A1, “Methods of isolation of active compounds and activated targets” (priority 2002, published 2004)
# No end group written: not given here.
# B1: alpha2: glycoprotein hormone subunit alpha2 as anchor component fused to HFRW via a 13 amino acid spacer (protein)
# chain: QEAVIPGCHLHPFNVTVRSDRQGTCQGSHVAQACVGHCESSAFPSRYSVLVASGYRHNITSVSQCCTISGLKKVKVQLQCVGSRREELEIFTARACQCDMCRLSRY
# What was measured:
# [1] = tested on: scFv-P2Y6; assay: Activation of scFv-P2Y6 in HEK293 cells, aequorin luminescence; type: cell-based, human; conditions: non-anchored agonists
# Text: A fusion protein was constructed between a single chain antibody against fluorescein (Boder et al. (2000) Proc. Natl. Acad. Sci. USA 97:10701-5) (docking domain) and the human P2Y6 receptor (GenBank accession number: NP_004145) (active domain). The target fusion protein, termed scFv-P2Y6, was co-transfected with the calcium-sensitive luminescent protein aequorin into HEK293 cells. After two days, the transfected cells were pre-loaded for two hours with the aequorin substrate coelenterazine (Molecular Probes) and then various amounts of UDP, UTP or ATP were added immediately followed by measurement of luminescence (FIG. 5A). The activation profile of these three agonists on the fusion protein closely mimicked their activation of the unfused P2Y6 receptor (not shown). […] In contrast to ATP alone, an anchored compound, a fluorescein-ATP conjugate (FITC-ATP; Perkin-Elmer), was able to activate the scFv-P2Y6 receptor at low concentrations (FIG. 5B) with a half-maximal stimulation occurring at about 10 nM.
# [2] = target: FcR-MC4R fusion protein (human); assay: cell-based or functional assay
# Sequence of FcR-MC4R fusion protein (human) (P12314 other isoform, or with tags, fused parts or gaps, form in doubt): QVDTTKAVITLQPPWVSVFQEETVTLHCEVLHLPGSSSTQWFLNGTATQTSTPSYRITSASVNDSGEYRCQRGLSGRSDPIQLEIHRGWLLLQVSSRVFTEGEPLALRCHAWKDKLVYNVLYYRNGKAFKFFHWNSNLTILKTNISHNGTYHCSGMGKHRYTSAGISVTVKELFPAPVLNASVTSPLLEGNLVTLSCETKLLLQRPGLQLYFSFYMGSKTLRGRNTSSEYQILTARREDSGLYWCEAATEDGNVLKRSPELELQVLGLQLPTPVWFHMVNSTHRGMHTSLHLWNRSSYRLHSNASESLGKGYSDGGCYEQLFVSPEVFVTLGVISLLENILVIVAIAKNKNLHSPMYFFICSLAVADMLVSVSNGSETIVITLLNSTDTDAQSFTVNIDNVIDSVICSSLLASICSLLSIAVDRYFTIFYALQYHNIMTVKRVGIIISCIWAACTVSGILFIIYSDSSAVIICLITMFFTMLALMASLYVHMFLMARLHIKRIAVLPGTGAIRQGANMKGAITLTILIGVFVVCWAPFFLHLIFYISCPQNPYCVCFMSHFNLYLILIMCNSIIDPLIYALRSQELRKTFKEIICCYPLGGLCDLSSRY
# [3] = tested on: melanocortin receptors; conditions: cited from earlier work
# [4] = target: T1, FcR-MC4R (Homo sapiens, UniProt P12314+P32245); assay: Inhibition by AGRP of FcR-MC4R activation, CRE-luciferase reporter; type: cell-based
# T1 construct: extracellular domain (residues 1-292, with its own signal peptide) of human Fc-gammaR1 = CD64 (NM_000566); expressed in transfected cells; host or cells: HEK293
# T1 sequence (P12314+P32245 fused): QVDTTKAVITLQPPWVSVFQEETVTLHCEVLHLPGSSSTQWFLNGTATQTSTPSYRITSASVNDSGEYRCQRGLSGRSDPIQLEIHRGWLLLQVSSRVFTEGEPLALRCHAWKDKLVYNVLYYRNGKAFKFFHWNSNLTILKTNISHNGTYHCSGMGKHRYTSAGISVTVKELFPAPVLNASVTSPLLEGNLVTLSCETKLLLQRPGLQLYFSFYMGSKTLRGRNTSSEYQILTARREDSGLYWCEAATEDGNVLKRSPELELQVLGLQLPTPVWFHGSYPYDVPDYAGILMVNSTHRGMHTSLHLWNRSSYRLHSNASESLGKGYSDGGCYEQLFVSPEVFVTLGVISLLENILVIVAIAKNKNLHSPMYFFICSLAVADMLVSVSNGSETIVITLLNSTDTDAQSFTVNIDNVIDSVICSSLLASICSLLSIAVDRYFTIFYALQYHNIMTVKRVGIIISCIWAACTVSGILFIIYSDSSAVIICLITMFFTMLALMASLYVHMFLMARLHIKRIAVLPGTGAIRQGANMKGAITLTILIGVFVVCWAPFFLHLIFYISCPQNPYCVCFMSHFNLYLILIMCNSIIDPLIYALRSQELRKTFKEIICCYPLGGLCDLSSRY
# Protocol: Activation of FcR-MC4R was assayed 6 hours after compound addition using a co-transfected CRE-luciferase construct (pCRE-Luc; Stratagene) and measuring luminescence after lysis and addition of the luciferase substrate (Tropix Luciferase Assay Kit).
# [5] = target: FcR-MC4R fusion protein (human); assay: cell-based or functional assay; remark: listed apart in the source
# [6] = tested on: Alpha1-mc4r, Alpha2-MC4R, OGH-MC4R and HCG-MC4R; assay: Glycoprotein hormone subunit-based extracellular 2-hybrid screen, CRE-luciferase reporter in HEK293 cells; type: cell-based; conditions: relative to no ligand control; two days after transfection
# Sequence of Alpha1-mc4r, Alpha2-MC4R, OGH-MC4R and HCG-MC4R (P32245 whole entry): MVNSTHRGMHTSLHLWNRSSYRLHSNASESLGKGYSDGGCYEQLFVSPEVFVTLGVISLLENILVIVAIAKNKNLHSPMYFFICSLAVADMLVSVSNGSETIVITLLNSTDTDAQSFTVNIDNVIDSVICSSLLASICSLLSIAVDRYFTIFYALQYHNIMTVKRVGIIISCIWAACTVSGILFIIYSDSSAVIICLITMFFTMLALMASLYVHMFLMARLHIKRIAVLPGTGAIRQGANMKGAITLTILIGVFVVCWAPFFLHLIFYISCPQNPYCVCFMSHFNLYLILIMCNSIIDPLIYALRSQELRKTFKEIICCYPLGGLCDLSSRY
# Protocol: Signal sequences were included at the beginning of each construct.
# Two days after transfection, the activity of the target fusion protein was measured by assaying luciferase activity as relative light units (Y axis, FIG. 7) on a luminometer.
molecule,measurement,setting,value
O=c1ccn([C@@H]2O[C@H](COP(=O)(O)OP(=O)(O)O)[C@@H](O)[C@H]2O)c(=O)[nH]1 [UDP],activation of scFv-P2Y6 (relative potency in words),[1],most potent activator
Nc1ncnc2c1ncn2[C@@H]1O[C@H](COP(=O)(O)OP(=O)(O)OP(=O)(O)O)[C@@H](O)[C@H]1O [ATP],activation of scFv-P2Y6 (relative potency in words),[1],required much higher concentrations
α-MSH-Fc (from UniProt P01189 138-150) (Fc fusion),amount of compound for half-maximal stimulation of MC4R (CRE-luciferase),[2],100 fold less
His Phe Arg Trp [HFRW],activation of melanocortin receptors,[3],"fully activate melanocortin receptors, but only at very high concentrations"
"agouti-related protein (SSRRCVRLHESCLGQQVPCCDPCATCYCRFFNAFCYCRKLGTAMNPCSRT; UniProt O00253 83-132, looked up) [AGRP, known antagonist of the MC4 receptor]",effect of increasing amounts of inhibitor on stimulation by HFRW-Fc,[4]; FcR-MC4R activated with anchored agonist HFRW-Fc,dramatically reduce the maximal stimulation levels
same,effect of increasing amounts of inhibitor on α-MSH dose response,[4]; FcR-MC4R activated with natural agonist α-MSH,shift the dose response curve of α-MSH progressively to the right
O=c1ccn([C@@H]2O[C@H](COP(=O)(O)OP(=O)(O)OP(=O)(O)O)[C@@H](O)[C@H]2O)c(=O)[nH]1 [UTP],activation of scFv-P2Y6 (relative potency in words),[1],required much higher concentrations
"HFRW-Fc (Fc fusion, part only; not given: Fc and linker, not shown: a dimerising Fc or GST, also: Fc junction, isotype and linker not given here) [HFRW-Fc]","half maximal level of the response (activation of MC4R, CRE-luciferase reporter, transiently transfected HEK293 cells)",[5],< 1 nM
B1,"binding between anchor and docking glycoprotein hormone subunits, seen as increased MC4R activity",[6],"binds to OGH, hCG, and itself"
